Key:
GST-A1-50B (human) = GST-A1-50B (human) (UniProt P54274+Q15554); assay: EMSA; details: RNA EMSA: 50 mM HEPES pH 8, 1 mM DTT, 100 mM NaCl, 0.01% BSA, 2% glycerol, 50 ng/uL E. coli tRNA, 0.25 nM RNA, 20 min on ice then 10 min 25 C; dsDNA EMSA: same …
GST-AP2EAB (human) = GST-AP2EAB (human) (UniProt P54274+Q15554); assay: EMSA; details: RNA EMSA: 50 mM HEPES pH 8, 1 mM DTT, 100 mM NaCl, 0.01% BSA, 2% glycerol, 50 ng/uL E. coli tRNA, 0.25 nM RNA, 20 min on ice then 10 min 25 C; dsDNA EMSA: same …
GST-TRF1ΔA = GST-TRF1ΔA (human, UniProt P54274 67-439, del1-66); assay: EMSA; E. coli tRNA; RNA EMSA: 50 mM HEPES pH 8, 1 mM DTT, 100 mM NaCl, 0.01% BSA, 2% glycerol, 50 ng/uL E. coli tRNA, 0.25 nM RNA, 20 min on ice then 10 min 25 C; dsDNA EMSA: same; details: protein: recombinant, tags: N-terminal GST, chain copies: 2, label: 5'-32P
GST-TRF2ΔB = GST-TRF2ΔB (human, UniProt Q15554 87-542, del43-86); assay: as above; details: protein: recombinant, tags: N-terminal GST, chain copies: 2, label: 5'-32P
GST-B R13-30A = molecular target: T1, GST-B R13-30A (human, UniProt Q15554 43-86, R55A;R59A;R60A;R63A;R67A;R69A;R70A;R72A); assay: as above; details: protein: recombinant; tags: N-terminal GST; label: 5'-32P; G4-forming
T1 chain: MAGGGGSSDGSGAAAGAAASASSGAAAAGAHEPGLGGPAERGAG

Sequence of GST-TRF1ΔA (P54274 67-439, stated change not applied): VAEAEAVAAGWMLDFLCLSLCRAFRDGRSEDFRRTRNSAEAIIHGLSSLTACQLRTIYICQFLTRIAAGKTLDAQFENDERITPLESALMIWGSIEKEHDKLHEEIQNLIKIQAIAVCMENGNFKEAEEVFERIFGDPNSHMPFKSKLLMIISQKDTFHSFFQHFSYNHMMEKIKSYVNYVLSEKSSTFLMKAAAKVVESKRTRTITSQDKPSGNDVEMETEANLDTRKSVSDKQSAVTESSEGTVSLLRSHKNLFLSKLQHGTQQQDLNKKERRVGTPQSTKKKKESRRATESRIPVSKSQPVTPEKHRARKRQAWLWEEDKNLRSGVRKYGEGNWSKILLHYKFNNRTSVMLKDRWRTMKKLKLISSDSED
Sequence of GST-TRF2ΔB (Q15554 87-542, stated change not applied): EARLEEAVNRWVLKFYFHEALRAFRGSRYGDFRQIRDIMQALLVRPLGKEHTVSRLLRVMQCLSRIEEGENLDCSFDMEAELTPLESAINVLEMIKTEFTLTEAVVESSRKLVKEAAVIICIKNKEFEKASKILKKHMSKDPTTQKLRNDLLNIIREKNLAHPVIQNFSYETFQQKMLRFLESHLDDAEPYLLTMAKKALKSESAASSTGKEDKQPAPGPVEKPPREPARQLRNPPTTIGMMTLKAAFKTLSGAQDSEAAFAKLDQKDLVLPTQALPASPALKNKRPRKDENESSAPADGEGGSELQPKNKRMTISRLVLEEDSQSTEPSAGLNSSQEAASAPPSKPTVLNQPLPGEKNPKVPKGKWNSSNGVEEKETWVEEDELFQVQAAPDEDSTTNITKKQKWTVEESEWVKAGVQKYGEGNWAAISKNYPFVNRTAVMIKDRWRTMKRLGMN
Sequence of GST-AP2EAB (human) (P54274 whole entry, chain 1 of 2): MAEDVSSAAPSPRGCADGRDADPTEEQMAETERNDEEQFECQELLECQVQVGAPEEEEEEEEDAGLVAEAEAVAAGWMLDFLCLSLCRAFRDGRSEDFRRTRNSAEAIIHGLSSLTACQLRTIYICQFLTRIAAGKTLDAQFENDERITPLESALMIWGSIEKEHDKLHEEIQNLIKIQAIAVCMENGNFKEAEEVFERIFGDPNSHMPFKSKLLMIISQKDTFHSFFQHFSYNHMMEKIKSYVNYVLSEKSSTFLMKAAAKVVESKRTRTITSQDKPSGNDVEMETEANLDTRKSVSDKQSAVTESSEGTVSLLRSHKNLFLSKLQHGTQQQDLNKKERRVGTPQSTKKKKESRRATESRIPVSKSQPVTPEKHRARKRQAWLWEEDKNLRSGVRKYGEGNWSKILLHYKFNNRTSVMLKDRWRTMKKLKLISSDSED
Sequence of GST-AP2EAB (human) (Q15554 whole entry, chain 2 of 2): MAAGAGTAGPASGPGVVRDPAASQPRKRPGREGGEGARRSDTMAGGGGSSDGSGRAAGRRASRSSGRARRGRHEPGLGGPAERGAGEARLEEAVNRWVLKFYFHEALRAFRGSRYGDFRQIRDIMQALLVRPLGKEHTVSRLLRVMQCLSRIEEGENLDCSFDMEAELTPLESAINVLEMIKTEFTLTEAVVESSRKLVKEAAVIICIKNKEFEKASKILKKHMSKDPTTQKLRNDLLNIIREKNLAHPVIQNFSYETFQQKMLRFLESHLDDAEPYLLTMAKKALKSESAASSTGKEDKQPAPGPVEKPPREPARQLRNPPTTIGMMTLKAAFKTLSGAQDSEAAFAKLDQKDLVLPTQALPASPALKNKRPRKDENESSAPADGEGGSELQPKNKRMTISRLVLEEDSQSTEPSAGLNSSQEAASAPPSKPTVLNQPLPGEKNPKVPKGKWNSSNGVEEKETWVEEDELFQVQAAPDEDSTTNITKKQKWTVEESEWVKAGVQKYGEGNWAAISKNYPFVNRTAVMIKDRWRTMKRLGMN
Sequence of GST-A1-50B (human) (P54274 whole entry, chain 1 of 2): as the sequence (P54274 whole entry, chain 1 of 2) above
Sequence of GST-A1-50B (human) (Q15554 whole entry, chain 2 of 2): as the sequence (Q15554 whole entry, chain 2 of 2) above

## UUAGGGUUAGGGUUAGGGUUAGGGUUAGGGUUAGGGUUAGGGUUAGGGUUAGGGUUAGGGUUAGGGUUAGGG [TERRA (UUAGGG)12]
GST-A1-50B (human)
  binding signal (% of B domain alone): 60
GST-AP2EAB (human)
  binding signal (% binding regained at 320 nM): 80

## UUACGGUUACGGUUACGGUUACGGUUACGG (ssRNA) [MUT1 (UUACGG)5]
GST-TRF1ΔA; not G4-forming
  binding result: no binding
GST-TRF2ΔB; not G4-forming
  binding result: no binding

## AAAGGGAAAGGGAAAGGGAAAGGGAAAGGG (structured_RNA) [MUT4 (AAAGGG)5]
GST-TRF1ΔA; G4-forming
  binding result: binds
GST-TRF2ΔB; G4-forming
  binding result: binds

## UUAGGGUUAGGGUUAGGGUUAGGGUUAGGG (structured_RNA) [TERRA (UUAGGG)5]
GST-TRF1ΔA; G4-forming
  binding result: binds
GST-TRF2ΔB; G4-forming
  binding result: binds
GST-B R13-30A
  binding result: no binding

## AUAGGGAUAGGGAUAGGGAUAGGGAUAGGG (structured_RNA) [MUT3 (AUAGGG)5]
GST-TRF1ΔA; G4-forming
  binding result: binds
GST-TRF2ΔB; G4-forming
  binding result: binds

## UUACCGUUACCGUUACCGUUACCGUUACCG (ssRNA) [MUT2 (UUACCG)5]
GST-TRF1ΔA; not G4-forming
  binding result: no binding
GST-TRF2ΔB; not G4-forming
  binding result: no binding
